According to paper PMC11870023, “A facile assay for zDHHC palmitoyl transferase activation elucidates effects of mutation and modification” (Journal of Lipid Research, 2025):

System: T1, CC(C)(COP(=O)(O)OP(=O)(O)OC[C@H]1O[C@@H](n2cnc3c(N)ncnc32)[C@H](O)[C@@H]1OP(=O)(O)O)[C@@H](O)C(=O)NCCC(=O)NCCSC(=O)CCCCCCCCCCCCCCCNc1ccc([N+](=O)[O-])c2nonc12
T1 construct: full length, HA tag kept (pEF-Bos-HA), HEK293 membrane fraction
Experiment: auto-S-palmitoylation of HEK293 membranes, SDS-PAGE fluorescence normalised to tag Western blot
Assay type: cell-based, Mus musculus
Conditions: pH 7.4, 37 °C, labelled compound, covalent thioester at active-site Cys

Sequence of mouse zDHHC17 (Mus musculus) (chain, as listed by the source): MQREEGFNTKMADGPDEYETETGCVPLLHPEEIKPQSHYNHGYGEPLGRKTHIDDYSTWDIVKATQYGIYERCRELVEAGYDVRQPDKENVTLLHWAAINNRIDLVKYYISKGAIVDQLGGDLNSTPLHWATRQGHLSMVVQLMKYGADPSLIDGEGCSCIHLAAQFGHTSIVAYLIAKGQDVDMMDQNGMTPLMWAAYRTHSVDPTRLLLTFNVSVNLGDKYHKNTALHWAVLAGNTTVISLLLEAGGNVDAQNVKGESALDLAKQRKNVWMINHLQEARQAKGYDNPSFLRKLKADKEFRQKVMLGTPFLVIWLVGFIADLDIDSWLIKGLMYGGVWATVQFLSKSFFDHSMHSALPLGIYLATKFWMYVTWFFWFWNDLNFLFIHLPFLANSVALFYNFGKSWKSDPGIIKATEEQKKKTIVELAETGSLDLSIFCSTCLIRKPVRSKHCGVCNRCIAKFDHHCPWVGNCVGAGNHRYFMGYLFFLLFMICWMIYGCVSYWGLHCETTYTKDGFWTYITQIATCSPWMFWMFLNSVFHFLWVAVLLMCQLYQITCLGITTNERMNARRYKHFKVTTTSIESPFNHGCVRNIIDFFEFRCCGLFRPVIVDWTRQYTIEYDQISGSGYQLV

mouse zDHHC17 (Mus musculus)
Km: 6.20 ± 1.20 µM
